Measurements taken from patent publication US20190324032A1 (University of California, published 2019).
Positions count from the first letter of the chain named. Names may count otherwise.

How the values were obtained:
[1] = target: T1, CLOCK PAS-B domain (residues 261-395) site-specifically labeled with FAM at its N-terminus (human, UniProt O15516 261-395, FAM (fluorescein) at the N-terminus, attached with Sortase A from FAM-LPETGG onto the N-terminal glycine); experiment: fluorescence polarization
T1 construct: Sortase ligation leaves residues of the FAM-LPETGG peptide in front of the N-terminal glycine; also called labeled CLOCK PAS-B; CLOCK PAS-B probe
T1 sequence: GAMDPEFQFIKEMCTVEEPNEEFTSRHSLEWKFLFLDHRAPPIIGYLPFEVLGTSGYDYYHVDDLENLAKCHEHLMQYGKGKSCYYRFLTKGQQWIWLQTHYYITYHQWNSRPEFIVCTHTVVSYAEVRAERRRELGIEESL

[2] = target: T2, CRY1 PHR P39A (mouse, UniProt P97784 1-491); experiment: size exclusion chromatography
T2 construct: also called CRY1 PHR P39A mutant; not shown: N-terminal His6 tag / vector residues
T2 sequence: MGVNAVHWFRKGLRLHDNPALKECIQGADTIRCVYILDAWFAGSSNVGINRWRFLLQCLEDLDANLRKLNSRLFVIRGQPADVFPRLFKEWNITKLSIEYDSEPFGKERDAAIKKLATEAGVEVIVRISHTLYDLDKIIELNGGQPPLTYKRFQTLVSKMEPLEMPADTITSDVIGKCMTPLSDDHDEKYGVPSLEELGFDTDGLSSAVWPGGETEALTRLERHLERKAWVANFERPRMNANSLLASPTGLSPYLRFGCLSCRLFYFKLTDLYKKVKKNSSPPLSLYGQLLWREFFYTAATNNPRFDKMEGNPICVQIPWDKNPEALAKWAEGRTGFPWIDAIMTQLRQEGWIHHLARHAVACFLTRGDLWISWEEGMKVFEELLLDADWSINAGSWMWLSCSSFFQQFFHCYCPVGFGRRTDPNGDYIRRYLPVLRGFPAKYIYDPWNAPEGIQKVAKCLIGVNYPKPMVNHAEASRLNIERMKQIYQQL
Protocol: (§1) For analysis of complex formation by size-exclusion chromatography (SEC), purified proteins were injected on a Superdex 200 10/300 GL or Superdex 75 10/300 GL analytical column at 10-50 μM (˜250 μL, 1:1 molar ratio) in 20 mM HEPES pH 7.5, 125 mM NaCl, 5% glycerol and 2 mM TCEP. Proteins were incubated for ˜30 min. or overnight and analyzed by SEC. All size-exclusion columns were calibrated with a low-molecular-weight gel filtration standards kit (GE Healthcare Life Sciences). The content of each peak was evaluated by SDS-PAGE and Coomassie staining.

[3] = target: T3, CRY1 PHR R109Q (mouse, UniProt P97784 1-491); experiment: size exclusion chromatography
T3 construct: also called CRY1 PHR R109Q mutant; not shown: N-terminal His6 tag / vector residues
T3 sequence: T2 sequence with A39P, R109Q
Protocol: as §1

[4] = target: T4, His6-tagged mouse CRY1 PHR (photolyase homology region, amino acids 1-491) (mouse, UniProt P97784 1-491); experiment: SEC of CRY1 PHR with preformed CLOCK:BMAL1 PAS-B dimer
T4 construct: Expressed in Sf9 cells; also called wild-type CRY1 PHR; not shown: N-terminal His6 tag / vector residues
T4 sequence: T2 sequence with A39P
Protocol: as §1

[5] = target: T4, His6-tagged mouse CRY1 PHR (photolyase …); experiment: size exclusion chromatography
Protocol: as §1

[6] = target: mouse BMAL1 PAS-B (residues 329-441) (mouse, UniProt Q9WTL8 329-441); experiment: size exclusion chromatography on Superdex 75
Chain of mouse BMAL1 PAS-B (residues 329-441) (Q9WTL8 329-441): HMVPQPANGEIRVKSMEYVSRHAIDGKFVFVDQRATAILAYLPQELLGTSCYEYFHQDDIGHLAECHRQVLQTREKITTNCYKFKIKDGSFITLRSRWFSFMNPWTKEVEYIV
Protocol: as §1

[7] = target: T4, His6-tagged mouse CRY1 PHR (photolyase …); experiment: GST pull-down
Protocol: Soluble proteins were purified using GS4B resin (GE Healthcare). GST-tagged proteins were eluted with 10 mM glutathione and peak elution was desalted into 20 mM HEPES pH 7.5, 125 mM NaCl, 5% glycerol and 2 mM TCEP. […] After rotation at 4° C. overnight, reactions were washed 3 times with the above buffer and eluted with 6× SDS. Samples were boiled for ˜5 min. and loaded on an SDS-PAGE gel for visualization by Coomassie stain.

B1: CRY1 PHR (residues 1-491) after cleavage of the His6 tag, with residual vector sequence (Example 6) (other)
chain: GAMDPEFMGVNAVHWFRKGLRLHDNPALKECIQGADTIRCVYILDPWFAGSSNVGINRWRFLLQCLEDLDANLRKLNSRLFVIRGQPADVFPRLFKEWNITKLSIEYDSEPFGKERDAAIKKLATEAGVEVIVRISHTLYDLDKIIELNGGQPPLTYKRFQTLVSKMEPLEMPADTITSDVIGKCMTPLSDDHDEKYGVPSLEELGFDTDGLSSAVWPGGETEALTRLERHLERKAWVANFERPRMNANSLLASPTGLSPYLRFGCLSCRLFYFKLTDLYKKVKKNSSPPLSLYGQLLWREFFYTAATNNPRFDKMEGNPICVQIPWDKNPEALAKWAEGRTGFPWIDAIMTQLRQEGWIHHLARHAVACFLTRGDLWISWEEGMKVFEELLLDADWSINAGSWMWLSCSSFFQQFFHCYCPVGFGRRTDPNGDYIRRYLPVLRGFPAKYIYDPWNAPEGIQKVAKCLIGVNYPKPMVNHAEASRLNIERMKQIYQQL
- binding result [1]: binds

B2: mouse CLOCK PAS-B (residues 261-395) (other)
chain: QFIKEMCTVEEPNEEFTSRHSLEWKFLFLDHRAPPIIGYLPFEVLGTSGYDYYHVDDLENLAKCHEHLMQYGKGKSCYYRFLTKGQQWIWLQTHYYITYHQWNSRPEFIVCTHTVVSYAEVRAERRRELGIEESL
notes: also called CLOCK PAS-B domain; CLOCK PAS-B WT
- binding result [2]: no binding (tested: 10-50 µM, 1:1 molar ratio)
- binding result [3]: no binding (tested: 10-50 µM, 1:1 molar ratio)
- binding result [4]: binds

B3: CLOCK PAS-B H360Y (other)
chain: B2 chain with H100Y
notes: also called CLOCK PAS-B H360Y mutant
- binding result [5]: no binding (tested: 10-50 µM, 1:1 molar ratio)

B4: CLOCK PAS-B V315R (other)
chain: B2 chain with V55R
notes: also called CLOCK PAS-B V315R mutant
- binding result [6]: no binding (tested: incubated 1:1)

B5: GST-CLOCK PAS-B W362A (other, not shown: a dimerising Fc or GST; small tags and cut ends)
chain: B2 chain with W102A
- binding result [7]: no binding
